# Experimental data as given in IntAct's records for PubMed 25910212.
# B1: Alpha-sarcoglycan (Homo sapiens), Q16586 (parent)
# chain: MAETLFWTPLLVVLLAGLGDTEAQQTTLHPLVGRVFVHTLDHETFLSLPEHVAVPPAVHITYHAHLQGHPDLPRWLRYTQRSPHHPGFLYGSATPEDRGLQVIEVTAYNRDSFDTTRQRLVLEIGDPEGPLLPYQAEFLVRSHDAEEVLPSTPASRFLSALGGLWEPGELQLLNVTSALDRGGRVPLPIEGRKEGVYIKVGSASPFSTCLKMVASPDSHARCAQGQPPLLSCYDTLAPHFRVDWCNVTLVDKSVPEPADEVPTPGDGILEHDPFFCPPTEAPDRDFLVDALVTLLVPLLVALLLTLLLAYVMCCRREGRLKRDLATSDIQMVHHCTIHGNTEELRQMAASREVPRPLSTLPMFNVHTGERLPPRVDSAQVPLILDQH
# B2: DNA excision repair protein ERCC-1 (Homo sapiens), P07992-3 (parent)
# chain: MDPGKDKEGVPQPSGPPARKKFVIPLDEDEVPPGVAKPLFRSTQSLPTVDTSAQAAPQTYAEYAISQPLEGAGATCPTGSEPLAGETPNQALKPGAKSNSIIVSPRQRGNPVLKFVRNVPWEFGDVIPDYVLGQSTCALFLSLRYHNLHPDYIHGRLQSLGKNFALRVLLVQVDVKDPQQALKELAKMCILADCTLILAWSPEEAGRYLETYKAYEQKPADLLMEKLEQDFVSRVTECLTTVKSVNKTDSQTLLTTFGSLEQLIAASREDLALCPGLGPQKVRALGKNPRSWGKERAPNKHNLRPQSFKVKKEPKTRHSGFRL
# partner: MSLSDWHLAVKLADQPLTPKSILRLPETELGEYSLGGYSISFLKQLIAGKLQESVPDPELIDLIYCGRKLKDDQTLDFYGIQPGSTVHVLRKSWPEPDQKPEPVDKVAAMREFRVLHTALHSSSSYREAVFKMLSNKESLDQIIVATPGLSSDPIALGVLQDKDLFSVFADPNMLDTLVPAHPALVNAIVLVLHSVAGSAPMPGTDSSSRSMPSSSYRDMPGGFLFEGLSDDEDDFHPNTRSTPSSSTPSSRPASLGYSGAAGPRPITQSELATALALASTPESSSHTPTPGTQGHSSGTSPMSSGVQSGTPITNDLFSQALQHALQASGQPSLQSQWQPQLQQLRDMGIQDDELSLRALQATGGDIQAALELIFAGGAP
# B3: NADH dehydrogenase [ubiquinone] 1 alpha subcomplex assembly factor 4 (Homo sapiens), Q9P032 (parent)
# chain: MGALVIRGIRNFNLENRAEREISKMKPSVAPRHPSTNSLLREQISLYPEVKGEIARKDEKLLSFLKDVYVDSKDPVSSLQVKAAETCQEPKEFRLPKDHHFDMINIKSIPKGKISIVEALTLLNNHKLFPETWTAEKIMQEYQLEQKDVNSLLKYFVTFEVEIFPPEDKKAIRSK
# B4: EF-hand domain-containing protein 1 (Homo sapiens), Q5JVL4 (parent)
# chain: MVSNPVHGLPFLPGTSFKDSTKTAFHRSQTLSYRNGYAIVRRPTVGIGGDRLQFNQLSQAELDELASKAPVLTYGQPKQAPPADFIPAHVAFDKKVLKFDAYFQEDVPMSTEEQYRIRQVNIYYYLEDDSMSVIEPVVENSGILQGKLIKRQRLAKNDRGDHYHWKDLNRGINITIYGKTFRVVDCDQFTQVFLESQGIELNPPEKMALDPYTELRKQPLRKYVTPSDFDQLKQFLTFDKQVLRFYAIWDDTDSMYGECRTYIIHYYLMDDTVEIREVHERNDGRDPFPLLMNRQRVPKVLVENAKNFPQCVLEISDQEVLEWYTAKDFIVGKSLTILGRTFFIYDCDPFTRRYYKEKFGITDLPRIDVSKREPPPVKQELPPYNGFGLVEDSAQNCFALIPKAPKKDVIKMLVNDNKVLRYLAVLESPIPEDKDRRFVFSYFLATDMISIFEPPVRNSGIIGGKYLGRTKVVKPYSTVDNPVYYGPSDFFIGAVIEVFGHRFIILDTDEYVLKYMESNAAQYSPEALASIQNHVRKREAPAPEAESKQTEKDPGVQELEALIDTIQKQLKDHSCKDNIREAFQIYDKEASGYVDRDMFFKICESLNVPVDDSLVKELIRMCSHGEGKINYYNFVRAFSN
# partner: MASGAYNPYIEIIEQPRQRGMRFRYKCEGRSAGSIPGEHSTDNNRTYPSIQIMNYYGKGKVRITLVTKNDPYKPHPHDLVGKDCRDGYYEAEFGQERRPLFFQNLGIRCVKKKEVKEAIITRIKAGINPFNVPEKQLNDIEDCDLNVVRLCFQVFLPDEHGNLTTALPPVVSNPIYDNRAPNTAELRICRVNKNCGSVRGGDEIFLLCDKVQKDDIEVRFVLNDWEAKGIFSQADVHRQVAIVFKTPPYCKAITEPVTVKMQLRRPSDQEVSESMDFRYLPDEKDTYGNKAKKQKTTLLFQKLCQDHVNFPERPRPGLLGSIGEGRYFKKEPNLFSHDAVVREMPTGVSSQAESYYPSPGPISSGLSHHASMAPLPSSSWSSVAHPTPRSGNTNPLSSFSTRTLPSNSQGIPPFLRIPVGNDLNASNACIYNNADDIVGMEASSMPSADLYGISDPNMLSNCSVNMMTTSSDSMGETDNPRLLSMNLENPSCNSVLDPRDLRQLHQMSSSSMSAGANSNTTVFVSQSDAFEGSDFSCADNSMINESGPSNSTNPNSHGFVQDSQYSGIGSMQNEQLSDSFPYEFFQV
# B5: Emerin (Homo sapiens), P50402 (parent)
# chain: MDNYADLSDTELTTLLRRYNIPHGPVVGSTRRLYEKKIFEYETQRRRLSPPSSSAASSYSFSDLNSTRGDADMYDLPKKEDALLYQSKGYNDDYYEESYFTTRTYGEPESAGPSRAVRQSVTSFPDADAFHHQVHDDDLLSSSEEECKDRERPMYGRDSAYQSITHYRPVSASRSSLDLSYYPTSSSTSFMSSSSSSSSWLTRRAIRPENRAPGAGLGQDRQVPLWGQLLLFLVFVIVLFFIYHFMQAEEGNPF
# partner: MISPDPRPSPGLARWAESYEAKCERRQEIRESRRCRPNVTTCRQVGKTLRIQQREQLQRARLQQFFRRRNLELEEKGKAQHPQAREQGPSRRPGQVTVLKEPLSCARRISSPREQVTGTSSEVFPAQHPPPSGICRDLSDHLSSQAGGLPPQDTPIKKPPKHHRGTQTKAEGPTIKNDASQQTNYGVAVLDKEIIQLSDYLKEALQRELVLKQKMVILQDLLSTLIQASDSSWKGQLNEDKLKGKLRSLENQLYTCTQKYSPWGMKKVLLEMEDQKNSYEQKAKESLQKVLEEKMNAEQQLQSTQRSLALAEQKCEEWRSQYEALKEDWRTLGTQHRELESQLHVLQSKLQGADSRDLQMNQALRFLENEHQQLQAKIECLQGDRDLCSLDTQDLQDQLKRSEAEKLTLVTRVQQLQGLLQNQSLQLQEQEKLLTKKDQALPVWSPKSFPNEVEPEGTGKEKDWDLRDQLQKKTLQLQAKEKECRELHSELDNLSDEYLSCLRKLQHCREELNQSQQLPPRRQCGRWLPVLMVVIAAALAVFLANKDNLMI
# Variants of: B1
# Conditions: with sgta_human SGTA
row,Variant,effect of a mutation on the interaction
1,R98H,with no effect

# Variants of: B2
# Conditions: with ubl7_human UBL7, Q96S82
row,Variant,effect of a mutation on the interaction
1,F231L,with no effect

# Variants of: B3
# Conditions: with NDUFAF3, Q9BU61-2
# Chain of NDUFAF3, Q9BU61-2 (Q9BU61 58-184): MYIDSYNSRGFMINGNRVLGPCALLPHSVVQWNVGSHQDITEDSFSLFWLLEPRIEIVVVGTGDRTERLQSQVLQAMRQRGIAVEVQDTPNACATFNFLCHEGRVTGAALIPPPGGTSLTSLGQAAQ
row,Variant,effect of a mutation on the interaction
1,L65P,with no effect

# Variants of: B4
# Conditions: with REL
row,Variant,effect of a mutation on the interaction
1,P77T,disrupting interaction strength
2,M448T,with no effect
3,A394S,disrupting interaction strength
4,T508R,disrupting interaction strength
5,R159W,with no effect
6,R221H,disrupting interaction strength

# Variants of: B5
# Conditions: with TRAF3IP3, Q9Y228
row,Variant,effect of a mutation on the interaction
1,S54F,with no effect
